The experiment addresses lamprey serum spherical lectin (LSSL), native, from lamprey serum (Lampetra japonica (endogenous in lamprey serum)). As to the kind of experiment: cryo-EM structure; native LSSL purified from serum, 2 μg/μL, vitrified; Titan Krios 300 kV; RELION 3.1.

Broadly, the stoichiometry N is the number of molecules, sites or subunits per partner or assembly. With “lamprey serum spherical lectin (LSSL), native, from lamprey serum (natural protein)”, the stoichiometry N came out at 3.

The record behind these values is PMC9682848.
